Paper PMC5624926

Experiments:
CD22_(20–687)F (human) [1] = molecular target: CD22_(20–687)F (human) (UniProt P20273); experiment: ITC; Auto-ITC200; 5 μM CD22 in the cell, 50 μM Fab in the syringe; 35 °C; triplicate
dCD22_(20–687) (human) [2] = molecular target: dCD22_(20–687) (human) (UniProt P20273); experiment: as above
CD22_(20–687)F (human) [3] = molecular target: CD22_(20–687)F (human) (UniProt P20273); experiment: BLI; Octet RED96; CD22_(20–687) forms loaded on Ni-NTA biosensors; Fab in solution 500 to 62.5 nM; 1x PBS pH 7.4, 0.002% Tween, 0.01% BSA; 1:1 fit; triplicate
dCD22_(20–687) (human) [4] = molecular target: dCD22_(20–687) (human) (UniProt P20273); experiment: as above

Kd (CD22_(20–687)F (human) [1]): 188 nM
Kd (dCD22_(20–687) (human) [2]): 58 nM
Kd (CD22_(20–687)F (human) [3]): 327 nM
Kd (dCD22_(20–687) (human) [4]): 24 nM
B1: epratuzumab Fab (Fab, V domains shown)
VH: QVQLVQSGAEVKKPGSSVKVSCKASGYTFTSYWLHWVRQAPGQGLEWIGYINPRNDYTEYNQNFKDKATITADESTNTAYMELSSLRSEDTAFYFCARRDITTFYWGQGTTVTVSS
VL: DIQLTQSPSSLSASVGDRVTMSCKSSQSVLYSANHKNYLAWYQQKPGKAPKLLIYWASTRESGVPSRFSGSGSGTDFTLTISSLQPEDIATYYCHQYLSSWTFGGGTKLEIK
